Test [1] has as its target T1, MICA002.His (human MICA*002 alpha 3 domain, His tagged) (human).
T1 construct: also called huMICA*002 alpha 3-his
T1 chain: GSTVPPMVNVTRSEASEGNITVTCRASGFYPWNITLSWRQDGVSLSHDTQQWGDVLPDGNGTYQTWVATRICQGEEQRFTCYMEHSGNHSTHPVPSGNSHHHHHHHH
As to the kind of experiment: SPR, antibody captured.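 Further: SPR with antibody held by surface-bound anti-Fc while His-tagged alpha three domains flow over, Kd derived by fitting a one-to-one binding model to sensograms.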 Background: SPR reads the build-up and loss of mass on a sensor chip optically.

Test [2] concerns the target T2, MICB005.His (human MICB*005 alpha 3 domain, His tagged) (human).
T2 construct: also called huMICB*005 alpha 3-his
T2 chain: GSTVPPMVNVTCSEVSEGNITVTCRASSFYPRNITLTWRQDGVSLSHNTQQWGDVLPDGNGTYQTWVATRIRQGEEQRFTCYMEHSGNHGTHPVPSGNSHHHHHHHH
As to the kind of experiment: SPR, antibody captured.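 Further: SPR with antibody held by surface-bound anti-Fc while His-tagged alpha three domains flow over, Kd derived by fitting a one-to-one binding model to sensograms.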

Test [3] addresses T3, MICA004.His (human MICA*004 alpha 3 domain, His tagged) (human).
T3 construct: also called huMICA*004 alpha 3-his
T3 chain: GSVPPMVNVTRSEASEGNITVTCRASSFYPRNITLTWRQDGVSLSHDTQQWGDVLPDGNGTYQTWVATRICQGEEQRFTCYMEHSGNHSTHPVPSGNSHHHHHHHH
Nature of the test: SPR, antibody captured.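 Further: SPR with antibody held by surface-bound anti-Fc while His-tagged alpha three domains flow over, Kd derived by fitting a one-to-one binding model to sensograms.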

Test [4] addresses T4, MICA008.His (human MICA*008 alpha 3 domain, His tagged) (human).
T4 construct: Also used for FPOP (expressed in CHO); also called huMICA*008 alpha 3-his; MICA*008 a3
T4 chain: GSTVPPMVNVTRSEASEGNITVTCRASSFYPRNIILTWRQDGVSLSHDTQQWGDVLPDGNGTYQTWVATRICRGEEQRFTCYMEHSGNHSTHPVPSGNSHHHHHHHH
Nature of the test: ELISA, coated antigen. In general terms: An ELISA detects its analyte on a solid surface through an enzyme-linked reagent.

In test [5] the target is T5, MICA*004 on HCC1534 cells (human, UniProt Q29983 24-383). As to the kind of experiment: cell-based or functional assay.
Test [6] deals with T6, MICA*008 on MEL-JUSO cells (human, UniProt Q29983 24-317).
T6 chain: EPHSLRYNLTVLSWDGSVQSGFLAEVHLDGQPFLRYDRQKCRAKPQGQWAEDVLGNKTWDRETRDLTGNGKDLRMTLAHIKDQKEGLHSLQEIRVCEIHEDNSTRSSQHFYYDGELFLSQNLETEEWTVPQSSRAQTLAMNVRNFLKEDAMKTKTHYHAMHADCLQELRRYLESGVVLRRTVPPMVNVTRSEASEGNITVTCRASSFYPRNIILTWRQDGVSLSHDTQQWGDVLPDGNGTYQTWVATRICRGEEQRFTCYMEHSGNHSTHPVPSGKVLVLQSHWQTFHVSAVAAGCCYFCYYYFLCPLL
As to the kind of experiment: cell-based or functional assay.

The target of test [7] is T7, MICA.008.a3.T204-S297.E215N.mIgG2a.Glyco12 (human; mouse, UniProt Q29983 204-297, engineered N-linked glycosylation site E215N).
T7 construct: not shown: murine IgG2a Fc
T7 chain: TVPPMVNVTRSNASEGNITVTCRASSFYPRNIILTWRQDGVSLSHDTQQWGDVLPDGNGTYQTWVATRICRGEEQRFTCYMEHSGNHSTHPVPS
As to the kind of experiment: ELISA, coated variant.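 Further: ELISA with plates coated at 2 ug/ml with MICA*008 alpha 3 glycosylation variants as murine IgG2a Fc fusions, antibody binding detected by HRP anti-human IgG Fc and TMB absorbance.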

Test [8] concerns the target T8, MICA.008.a3.T204-S297.C-terminal insert of N298.G299.S300.mIgG2a.Glyco17 (human; mouse, UniProt Q29983 204-297, engineered N-linked glycosylation site at inserted N298).
T8 construct: not shown: murine IgG2a Fc
T8 chain: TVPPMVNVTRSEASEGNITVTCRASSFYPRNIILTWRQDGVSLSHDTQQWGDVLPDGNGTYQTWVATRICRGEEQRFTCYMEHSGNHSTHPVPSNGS
Nature of the test: ELISA, coated variant.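 Further: ELISA with plates coated at 2 ug/ml with MICA*008 alpha 3 glycosylation variants as murine IgG2a Fc fusions, antibody binding detected by HRP anti-human IgG Fc and TMB absorbance.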

Test [9] has as its target T9, MICA.008.a3.T204-S297.I236T.mIgG2a.Glyco13 (human; mouse, UniProt Q29983 204-297, engineered N-linked glycosylation site created by I236T).
T9 construct: not shown: murine IgG2a Fc
T9 chain: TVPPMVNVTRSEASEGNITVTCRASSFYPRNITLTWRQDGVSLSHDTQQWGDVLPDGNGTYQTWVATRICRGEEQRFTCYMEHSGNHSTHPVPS
Nature of the test: ELISA, coated variant.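 Further: ELISA with plates coated at 2 ug/ml with MICA*008 alpha 3 glycosylation variants as murine IgG2a Fc fusions, antibody binding detected by HRP anti-human IgG Fc and TMB absorbance.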

In test [10] the target is T10, MICA.008.a3.R202-S297.R202N mIgG2a.Glyco11 (human; mouse, UniProt Q29983 203-297, engineered N-linked glycosylation site R202N).
T10 construct: not shown: murine IgG2a Fc
T10 chain: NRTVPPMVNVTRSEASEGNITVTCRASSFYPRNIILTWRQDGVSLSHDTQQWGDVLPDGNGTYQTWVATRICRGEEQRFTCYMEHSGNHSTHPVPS
As to the kind of experiment: ELISA, coated variant.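 Further: ELISA with plates coated at 2 ug/ml with MICA*008 alpha 3 glycosylation variants as murine IgG2a Fc fusions, antibody binding detected by HRP anti-human IgG Fc and TMB absorbance.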

Test [11] deals with T11, MICA.008.a3.T204-S297.G243N.mIgG2a.Glyco14 (human; mouse, UniProt Q29983 204-297, engineered N-linked glycosylation site G243N).
T11 construct: not shown: murine IgG2a Fc
T11 chain: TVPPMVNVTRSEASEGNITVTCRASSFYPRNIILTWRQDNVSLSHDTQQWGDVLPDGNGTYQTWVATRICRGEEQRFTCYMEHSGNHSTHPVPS
Nature of the test: ELISA, coated variant.

The target of test [12] is T4, MICA008.His (human MICA*008 alpha 3 …). Nature of the test: SPR, antibody captured.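 Further: SPR with antibody held by surface-bound anti-Fc while His-tagged alpha three domains flow over, Kd derived by fitting a one-to-one binding model to sensograms.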
In test [13] the target is T12, MICB*005 on HCC1534 cells (human, UniProt Q29980 23-383).
T12 sequence (looked up): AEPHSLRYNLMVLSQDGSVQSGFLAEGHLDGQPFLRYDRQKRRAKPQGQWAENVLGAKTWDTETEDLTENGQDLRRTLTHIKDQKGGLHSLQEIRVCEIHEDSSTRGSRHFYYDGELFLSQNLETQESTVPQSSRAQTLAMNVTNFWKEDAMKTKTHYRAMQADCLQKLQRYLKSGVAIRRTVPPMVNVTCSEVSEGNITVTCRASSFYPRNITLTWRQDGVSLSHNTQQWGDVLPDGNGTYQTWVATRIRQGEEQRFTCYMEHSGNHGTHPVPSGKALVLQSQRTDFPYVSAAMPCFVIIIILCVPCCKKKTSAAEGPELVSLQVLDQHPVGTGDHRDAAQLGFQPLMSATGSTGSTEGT
Nature of the test: cell-based or functional assay.

The target of test [14] is T13, MILL1-MICA chimera.murine IgG2a Fc fusion (mouse MILL1 with grafted human MICA*008 …).
T13 construct: MICA*008 residues around NGTYQT on the 'back' and in the beta2 microglobulin interface grafted onto murine MILL1; also called MILL1-MICA*008 chimera
As to the kind of experiment: ELISA, coated chimera.

In test [15] the target is T14, MICA.008.a3.T204-S297.H248N.mIgG2a.Glyco15 (human; mouse, UniProt Q29983 204-297, engineered N-linked glycosylation site H248N).
T14 construct: not shown: murine IgG2a Fc
T14 chain: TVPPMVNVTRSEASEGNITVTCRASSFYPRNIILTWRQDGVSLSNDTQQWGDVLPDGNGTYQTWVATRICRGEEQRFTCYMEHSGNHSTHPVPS
Nature of the test: ELISA, coated variant.

The target in test [16] is T12, MICB*005 on HCC1534 cells. Nature of the test: cell-based or functional assay. The source holds these as a separate data set.
In test [17] the target is MICA*002 on cells (PANC-1; B16-MICA002) (human, UniProt Q29983 24-383). Nature of the test: cell-based or functional assay.
Test [18] addresses T5, MICA*004 on HCC1534 cells. Nature of the test: cell-based or functional assay. The source holds these as a separate data set.
In test [19] the target is T6, MICA*008 on MEL-JUSO cells. As to the kind of experiment: cell-based or functional assay.
Test [20] deals with T12, MICB*005 on HCC1534 cells. As to the kind of experiment: cell-based or functional assay. This is another data set of the same source.
In test [21] the target is T5, MICA*004 on HCC1534 cells. As to the kind of experiment: cell-based or functional assay. This is another data set of the same source.
The target in test [22] is T6, MICA*008 on MEL-JUSO cells. As to the kind of experiment: cell-based or functional assay.
The target in test [23] is T15, human MICA*008 alpha 3 domain, untagged (crystallography) (human, UniProt Q29983 204-297).
T15 construct: Made in T. ni cells with EndoH and kifunensine; N-terminal His6 tag removed with thrombin; also called MICA*008 α3 domain
T15 chain: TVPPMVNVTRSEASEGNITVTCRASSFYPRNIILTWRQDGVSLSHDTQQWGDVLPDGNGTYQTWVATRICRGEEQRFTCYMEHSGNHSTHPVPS
Nature of the test: complex purified by size exclusion, X-ray structure. For orientation: SEC sorts molecules by how far they enter the pores of the column.

For orientation: Kd means a measure of binding affinity in units of concentration. Read a high Kd as a looser complex.

Read-outs that look alike come from different tables or passages of the source.

B1: 7A3.1.9 (antibody, V domains shown)
VH: QVQLKESGPGLVAPSQSLSITCTVSGFALTGSGVNWVRQPPGKGLEWLGMIWGDGNTDYNSALKSRLSISKDNSKSQIFLKMNSLQTDDTARYYCARGAHYGKRWYFDVWGAGTTVTVSS
VL: DIQMTQTTSSLSASLGDRVTISCSASQGINNYLNWYQQKPDGTVKLLIYYTSSLPSGVPSRFSGSGSGTDYSLTISNLEPEDIATYYCQQYSKLPPTFGGGTKVEIK
notes: Mouse hybridoma antibody; constant regions differ by assay
For B1, the results for the Kd in test [1], in [2] and in test [3] were 22 nM, 16 nM and 8.7 nM, respectively. For the same molecule, the binding result in test [4], in test [7], in test [8], in test [9], in [10] and in [11] was “binds” in each case. Besides, the “% max inhibition of shedding” value in test [5] was 50%; in [6] it was less than 10%. Also, the “EC50 of shedding inhibition” value in test [5] worked out at 0.411 µg/mL.

B2: 1E6.1.3 (antibody, V domains shown)
VH: QVQLKESGPGLVAPSQSLSITCTVSGFSLTGSGVNWVRQPPGQGLEWLGMIWGDGNTDYNSALKSRLSISKDNSKSQVFLKMNSLQTDDTARYYCARGAHYGKRWYFDVWGAGTTVTVSS
VL: DIQMTQTTFSLSASLGDRVTISCSASQGINNYLNWYQQRPDGTVKLLIYYTSTLPSGVPSRFSGSGSGTDYSLTISNLEPEDIASYYCQQYSKLPPTFGGGTKVEIK
notes: as for B1
In the case of B2, the Kd turned out to be 24 nM in test [1], 18 nM in [2] and 37 nM in test [3]. Further, the binding result in [4], in [7], in [8], in test [9], in test [10] and in [11] was “binds” in each case. Further, the “% max inhibition of shedding” value in [5] amounted to 46%; in test [6] it was 20%. In addition, the “EC50 of shedding inhibition” value in [5] was found to be 0.681 µg/mL.

B3: 13A9 (antibody, V domains shown)
VH: QVQLQQSGAELVRPGTSVKVSCKASGYAFTNYLIEWVKQRPGQGLEWIGAINPGSGATNYNEKFKDKARLTADKSSNTAYLQFSSLTSDDSAVYFCARFLGNYFDNWGQGATLTVSS
VL: DIQMTQSPASLSASVGETVTITCRASGNIHSYLAWYQQKQGKSPQLLVYYAETLADGVPSRFSGRGSGTQYSLKINSLQPEDFGSYFCQQFWTTPYTFGGGTKVEIK
notes: Mouse variable domains; constant regions differ by assay
In the case of B3, the Kd in [1] turned out to be 0.5 nM; in test [12], 0.94 nM; in test [2], 0.97 nM; in [3], 1.55 nM. In addition, the “% max inhibition of shedding” value in test [13] was 79%; in test [5] it was 66%; in [6], 47%. In addition, the “EC50 of shedding inhibition” value in [13] worked out at 0.053 µg/mL; in test [5], 0.166 µg/mL; in test [6], 0.489 µg/mL; in test [16], 0.0349 µg/mL; in test [17], 0.418 µg/mL; in test [18] it was 0.599 µg/mL. The “EC50 of shedding inhibition” value in test [19] came to 0.794 µg/mL. Also, the binding result in test [14], in [15], in [7], in test [8], in test [9] and in test [10] was “binds” in each case. The “Max % Inhibition of shedding” value amounted to 76% in test [16], 66% in [17], 56% in test [18] and 50% in [19]. Further, the “maximum inhibition of shedding” value was 75% in test [20], approximately 60% in [21] and approximately 40% in test [22].

B4: 13A9 Fab (Fab, V domains shown)
VH: QVQLQQSGAELVRPGTSVKVSCKASGYAFTNYLIEWVKQRPGQGLEWIGAINPGSGATNYNEKFKDKARLTADKSSNTAYLQFSSLTSDDSAVYFCARFLGNYFDNWGQGATLTVSS
VL: DIQMTQSPASLSASVGETVTITCRASGNIHSYLAWYQQKQGKSPQLLVYYAETLADGVPSRFSGRGSGTQYSLKINSLQPEDFGSYFCQQFWTTPYTFGGGTKVEIK
notes: Expressed in E. coli as chimera of murine variable and human constant domains; not shown: human IgG1 CH1 constant domain; human kappa CL constant domain
Regarding B4, in test [23], the binding result is given as “binds”.
